Usually pKd stands for the negative decadic logarithm of the Kd, by convention in mol/L. High values mean a small Kd, low ones a large Kd.

This passage reports Kd results from patent US20260184814A1, “BROADLY NE[…] INFLUENZA NEURAMINIDASE” (priority 2022, published 2026).

pKd: −log10 of the molar value.

Test [1] has as its target N2 A/HongKong/2671/2019 (Influenza A virus (H3N2)).
In test [2] the target is N2 A/Switzerland/8060/2017 (Influenza A virus (H3N2)).

Turning to 1G01 Fab, the pKd in test [1] and in test [2] was above 10.70 throughout.
